Experimental findings from article PMC5261807 (2017) are described below.

Non-standard residues stand in square brackets, D forms with d. Primed or numbered codes have the meaning given here. No end group written: not given here. Me2a″ = asymmetric dimethylarginine (Rme2a); Arg(Me2a) = CN(C)C(=N)NCCC[C@H](N)C(=O)O; Lys(Me3) = C[N+](C)(C)CCCC[C@H](N)C(=O)O; Arg(Me2s) = CN=C(NC)NCCC[C@H](N)C(=O)O; pT = C[C@@H](OP(=O)(O)O)[C@H](N)C(=O)O; Me2a = asymmetric dimethyl (on Arg); Lys(Me2) = CN(C)CCCC[C@H](N)C(=O)O; pS = N[C@@H](COP(=O)(O)O)C(=O)O; Lys(Me) = CNCCCC[C@H](N)C(=O)O; Me3″ = trimethyl lysine (Kme3)

Assay [1] addresses T1, Bdf1 bromodomain 2 (GST-tagged, WT) (Saccharomyces cerevisiae (strain ATCC …, UniProt P35817)).
T1 chain: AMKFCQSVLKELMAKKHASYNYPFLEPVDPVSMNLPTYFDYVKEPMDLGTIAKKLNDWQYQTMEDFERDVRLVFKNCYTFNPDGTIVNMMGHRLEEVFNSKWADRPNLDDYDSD
The assay is described as follows: histone peptide array probed with recombinant GST-bromodomain, signal normalised to myc peptide control.

Assay [2] addresses T2, Bdf1 bromodomain 1 (GST-tagged, WT) (Saccharomyces cerevisiae (strain ATCC …, UniProt P35817)).
T2 chain: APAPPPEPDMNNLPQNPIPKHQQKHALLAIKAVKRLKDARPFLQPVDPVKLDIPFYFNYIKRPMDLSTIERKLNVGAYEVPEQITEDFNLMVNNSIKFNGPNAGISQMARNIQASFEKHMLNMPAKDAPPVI
The description is as above.

With ARTKQTAR(Me2a)K(Me)STGGKAPRKQ, the binding score in assay [1] was determined as 0. On to PRKQLATKAARK(Ac)SAPATGG, for which the binding score in assay [1] is 0.00915; in assay [2], 0.

Take A[Arg(Me2s)][pT]K(Ac)QTARKSTGGKAPRKQ: the binding score amounted to 0.0206 in assay [1] and 0.0231 in assay [2]. Regarding ARTKQTARKSTGGKAPRKQ (A R T Kme1 Q T A Rme2s Kac S T G G K A P R K Q), the binding score came to 0.0265 in assay [1] and 0.0247 in assay [2].

With ARTKQTARKSTGGKAPRKQ (A R T Kme1 Q T A Rme2s Kme2 S T G G K A P R K Q), the binding score came to 0.00364 in assay [1] and 0.00879 in assay [2]. Consider A[Arg(Me2a)]T[Lys(Me)]QTARK(Ac)STGGKAPRKQ, for which the binding score in assay [1] is 0.00207; in assay [2], 0.00699.

With ARTKQTARKSTGGKAPRKQ (A R T Kme2 Q T A Rme2s Kme3 S T G G K A P R K Q), the binding score stood at 0 in assay [1] and 0.00592 in assay [2].

For A[Arg(Me2a)][pT]KQTARKSTGGKAPRKQ, in assay [2], the binding score worked out at 0. As to SGRGKGGKGLGKGGAKRHR (S G R G Kac G G Kac G L G Kac G G A Kac R H R), the binding score came out at 0.944 in assay [1] and 0.561 in assay [2]. Turning to SGRGKGGKGLGKGGAKRHR (S G Rme2a G K G G Kac G L G K G G A K R H R), the results for the binding score in assay [1] and in assay [2] were 0.0345 and 0.0183, respectively. On to ARTKQTARKSTGGKAPRKQ (A Rme2s pT Kme2 Q T A R K S T G G K A P R K Q), for which the binding score in assay [1] and in assay [2] was 0 throughout.

Take ARTKQTARKSTGGKAPRKQ (A R T K Q T A R Kac S T G G K A P R K Q): the binding score is 0.00364 in assay [1] and 0.000897 in assay [2]. For A[Arg(Me2s)]T[Lys(Me3)]QTAR[Lys(Me)]STGGKAPRKQ, the results for the binding score in assay [1] and in assay [2] were 0.00895 and 0, respectively. Turning to ARTKQTARKSTGGKAPRKQ (A Rme2s T Kme1 Q T A Rme2a Kme3 S T G G K A P R K Q), the binding score in assay [1] was determined as 0; in assay [2], 0.00628. Take ARTKQTARKSTGGKAPRKQ (A R T Kac Q T A Rme2a Kme1 S T G G K A P R K Q): the binding score amounted to 0.00423 in assay [1] and 0.00323 in assay [2].

As to A[Arg(Me2s)]T[Lys(Me3)]QTA[Arg(Me2a)][Lys(Me2)]STGGKAPRKQ, the results for the binding score in assay [1] and in assay [2] were 0 and 0.00197, respectively. On to AR[pT]K(Me)QTARKSTGGKAPRKQ, for which the results for the binding score in assay [1] and in assay [2] were 0.00679 and 0, respectively. As to A[Arg(Me2s)][pT]KQTARKSTGGKAPRKQ, the binding score in assay [1] was 0.00502; in assay [2] it was 0. On to ARTKQTA[Arg(Me2a)]K[pS]TGGKAPRKQ, for which, in assay [1], the binding score amounted to 0.

As to AR[pT][Lys(Me2)]QTARKSTGGKAPRKQ, the binding score in assay [1] came to 0.00895; in assay [2] it was 0.00161.

B1: H4 1-19 (peptide)
chain: SGRGKGGKGLGKGGAKRHR
modifications: histone peptides carry modifications given inline in the sequence and in columns 4-7 (Kac, Kme1/2/3, Rme2a/s, Cit, pS/pT); N-terminus free or acetylated
For the molecule B1, the binding score turned out to be 0 in assay [1] and 0.00897 in assay [2]. The corresponding values for PRKQLATKAA[Arg(Me2a)][Lys(Me2)]SAPATGG are 0 and 0.00789. For ARTKQTARKSTGGKAPRKQ (A Rme2a T Kme2 Q T A Rme2a Kme1 S T G G K A P R K Q), the figures for the binding score in assay [1] and in assay [2] were 0 and 0.00897, respectively.

In the case of ARTKQTA[Arg(Me2a)]KS[pT]GGKAPRKQ, in assay [1], the binding score turned out to be 0.

Regarding ARTKQTARKSTGGKAPRKQ (A Rme2a T Kme1 Q T A Rme2a Kme3 S T G G K A P R K Q), the binding score in assay [1] was 0.00285; in assay [2] it was 0.00197. Consider PRKQLATKAAR(Me2a″)K(Me3″)SAPATGG, for which the binding score in assay [1] was determined as 0.00167; in assay [2], 0. For the molecule RKSAPATGGVKKPHRYRPG (R K S A P A T G G V Kme2 K P H R Y R P G) [H3 26-45], the binding score in assay [1] and in assay [2] was 0 in each case. For ARTKQTARKSTGGKAPRKQ (A R T Kme2 Q T A R K S T G G K A P R K Q), the binding score in assay [1] amounted to 0.006; in assay [2], 0. The corresponding values for SGRGKGGKGLGKGGAKRHR (S G Rme2a G K G G K G L G K G G A K R H R) are 0.00305 and 0.0247. With ARTKQTARKSTGGKAPRKQ (A R T Kac Q T A Rme2s Kme3 S T G G K A P R K Q), the binding score was 0.00482 in assay [1] and 0.00287 in assay [2]. With SGRGKGGKGLGKGGAKRHR (S G R G K G G Kac G L G K G G A K R H R), the results for the binding score in assay [1] and in assay [2] were 0.0237 and 0.0203, respectively.

Turning to SGRGKGGKGLGKGGAKRHR (S G R G K G G K G L G Kac G G A Kac R H R), the binding score in assay [1] came to 0.21; in assay [2], 0.206. The corresponding values for A[Arg(Me2s)]T[Lys(Me3)]QTA[Arg(Me2s)][Lys(Me3)]STGGKAPRKQ are 0 and 0.00789. Consider ARTKQTARKSTGGKAPRKQ (A R T K Q T A Rme2a K S T G G K A P R K Q), for which the binding score in assay [1] and in assay [2] was 0 in each case. ARTKQTA[Arg(Me2a)][Lys(Me3)][pS]TGGKAPRKQ: the binding score in assay [1] and in assay [2] was 0 in each case.
